Reference: patent publication US8008452B2, “Phosphorylated Ndr kinase” (Novartis Forschungesstiftung, Zweigniederlassung Friedrich …, priority 2002, dated 2011)

Assays:
GST-NDR1 = assay: Immunodetection of GST-NDR1 phosphorylated on Ser281 or Thr444 after in vitro autophosphorylation; format: biochemical, human; details: in vitro autophosphorylation with or without Ca2+/S100B
Method: Either 1 microgram GST-NDR1 or HA-NDR1 immunoprecipitated from 100 microgram COS-1 detergent extracts as described above was separated on 10% SDS-PAGE and immunoblotted 2 h at RT or overnight at 4° C. with anti-Ser281P antisera (1:1000) in the presence of 50 microg/ml competing unphosphopeptide or anti-Thr444P purified antibody (1:500). Both antibodies were detected with horseradish peroxidase-conjugated donkey anti-rabbit Ig antibody (Amersham biosciences) and developed by ECL (chemiluminescence; Amersham Pharmacia Biotech).
To reliably quantify the effect of S100B on NDR1 phosphorylation status, rabbit polyclonal antibodies were raised against phosphoepitopes comprising Ser281 or Thr444. GST-NDR1 mutants were treated essentially as described in Example 2 and detected either with anti-NDR1_C-term antiserum or polyclonal antibodies recognising NDR1 phosphorylated on Ser281 or Thr444.

HA-NDR1 = HA-NDR1 kinase assay on 12CA5 immunoprecipitates from transfected, treated COS-1 cells; format: cell-based, human; details: COS-1 cells
Method: In some experiments, the cells were treated for 60 min with 1 microM okadaic acid in 0.1% N,N-dimethylformamide (DMF) (Alexis Corp.), 50 microM BAPTA-AM (1,2-bis (o-aminophenoxy) ethane-N,N,N′,N′-tetraacetic acid tetra (acetoxy-methyl)ester) in 0.1% diimethylsulfoxide (DMSO; Sigma), or 20 microM thapsigargin in 0.1% DMSO (Alomone) 24 hours after transfection.
Transfected and treated COS-1 cells were washed once with ice-cold PBS, and harvested by rubber policeman in 1 ml ice-cold PBS containing 1 mM Na3VO4 and 20 mM beta-glycerophosphate before lysis in 500 microliters of IP buffer (20 mM Tris-HCl pH 8.0, 150 mM NaCl, 1% Nonidet P-40, 10% glycerol, 1 mM Na3VO4, 20 mM beta-glycerolphosphate, 1 microM microcystin-LR, 50 mM NaF, 0.5 mM PMSF, 4 microM leupeptin, 1 mM benzamidine, and 1 tablet/10 ml IP of Complete protease inhibitors (Roche)). Lysates were centrifuged at 20 000 g for 20 min and triplicate aliquots (200 microg) of supernatant were precleared with protein A-Sepharose (Amersham Pharmacia Biotech) for 60 min and mixed subsequently for 3 h at 4° C. with 12CA5 antibody prebound to protein A-Sepharose (˜1 microg antibody bound to 2 microl beads). The beads were then washed twice with IP buffer, once for 10 min with IP buffer containing 1 M NaCl, once again for 10 min with IP buffer, and finally twice with 20 mM Tris-HCl pH 7.5 containing 4 microM leupeptin and 1 mM benzamidine. […] After 60 min incubation at 30° C., 15 microliters of supernatant were removed, and phosphate incorporation into the substrate peptide determined as described for GST-NDR1 above. […]
To test whether hMOB1 plays a role in NDR activation, myc-hMOB1 or the empty vector was cotransfected with HA-NDR1 in COS1 cells and treated with OA. […] The reactions were resolved on a 10% SDS PAGE and the radioactivity visualised by using a phosphoimager.

B1: S281A: NDR1 alanine mutant of phosphorylation residue Ser281; GST fusion or HA-tagged (protein)
chain: MAMTGSTPCSSMSNHTKERVTMTKVTLENFYSNLIAQHEEREMRQKKLEKVMEEEGLKDEEKRLRRSAHARKETEFLRLKRTRLGLEDFESLKVIGRGAFGEVRLVQKKDTGHVYAMKILRKADMLEKEQVGHIRAERDILVEADSLWVVKMFYSFQDKLNLYLIMEFLPGGDMMTLLMKKDTLTEEETQFYIAETVLAIDSIHQLGFIHRDIKPDNLLLDSKGHVKLSDFGLCTGLKKAHRTEFYRNLNHSLPSDFTFQNMNSKRKAETWKRNRRQLAFATVGTPDYIAPEVFMQTGYNKLCDWWSLGVIMYEMLIGYPPFCSETPQETYKKVMNWKETLTFPPEVPISEKAKDLILRFCCEWEHRIGAPGVEEIKSNSFFEGVDWEHIRERPAAISIEIKSIDDTSNFDEFPESDILKPTVATSNHPETDYKNKDWVFINYTYKRFEGLTARGAIPSYMKAAK
modifications: left off: small tags and cut ends
notes: NDR1 alanine mutant of phosphorylation residue Ser281; GST fusion or HA-tagged
- phosphorylation of GST-NDR1 on Ser281 and Thr444 (phosphospecific antibodies) (GST-NDR1): entirely abolishes the autophosphorylation on Thr444
- kinase activity of HA-NDR1 variants, +OA (HA-NDR1; 1 microM okadaic acid 1 h): 0.1113
- kinase activity of HA-NDR1 variants, −OA (HA-NDR1; solvent alone 1 h): 0.0357
